Measurements as given in the nanobody polyreactivity screen of Harvey et al. (2022).

Test: yeast display, Sf9 membrane polyspecificity reagent, FACS + sequencing; frameworks hold sequencing errors
Procedure, shortened: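 Galactose-induced (36–48 hours) yeast carrying a synthetic nanobody display library were exposed to 10% biotinylated, detergent-solubilized Sf9 membrane reagent at 4 °C for 1 hour. FACS followed streptavidin microbead enrichment, using low and high (top ~1%) gates for expression (anti-HA) and reagent binding (streptavidin). Colony PCR, MiSeq 2 × 250 sequencing and CDR-length filtering followed. Labels for polyreactivity reflect the gate of origin.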

| Sequence | polyreactivity (PSR sort gate) |
| --- | --- |
| QVQLVESGGGLVQAGGSLRLSCAASGSIFVIYAMGWYRQAPGKERELVAAISWNGGSTFYADSVKGRFTISRDNAKNTVYLQMNSLKPDDTAVYDCNTVASYYRWKSYYYWGQGTQVTVSS | high polyreactivity |
| QVQLVESGGGLVQAGGSLRLSCAASGSIFVKNAMGWYRPAPGKEREFVAAITTSGGSTNYADSVKGRFTISRDNAKNTVYLQMTSLKPEDTAVYYCNTDIFPAAYDYWVQGTQVTVSS | low polyreactivity |
| QVQLVESGGGLVQAGGSLRLSCAASGSIFVKNAMGWYRQAPGKERELVAVITIRTATTYYADSVKGRFTISRDNAKNTVYLQMNSLKPEVTAVYYCAAAKRQRGYLQREGNYWGQGTQVTVSS | low polyreactivity |
| QVQLVESGGGLVQAGGSLRLSCAASGSIFVLNAMGWSRQAPGKETELVAAISYSGTGTYYADSVKGRFTISRDNAKNTVYLQMNSLKPEDTAVYDCAADYYYRYRIYDYWGQGTQVTLSS | low polyreactivity |
| QVQLVESGGGLVQAGGSLRLSCAASGSIFVLYAMGWYRQAPGKERELVAAIDFGGGSTYYADSVKGRFTISRDNAKNTVYLQMNSLKPEYTAVYYCAAELYYTYRWYDYWGQGTQVTVSS | high polyreactivity |
| QVQLVESGGGLVQAGGSLRLSCAASGSIFVLYAMGWYRQAPGKERELVAAITSGASTNYADSVKGRFTISRDNAKNTVYLQMNSLKPEDTAVYYCNTGSRLDRVDSWGQGTQVTVSS | low polyreactivity |
| QVQLVESGGGLVQAGGSLRLSCAASGSIFVNYAMGWYRQAPGKERELVAAISTGGGRTFYADSVKGRFTISRDNAKNTVYLQMNSLKPEDTAVYYCNKLGRPEYDYWGQGTQVTVSS | high polyreactivity |
| QVQLVESGGGLVQAGGSLRLSCAASGSIFVPNDMGWYRQAPGKEREFVAAITESDGSTYNADSVKGRFTISRDNAKNTVYLQMNSLKPEDTAVYYCATDSTGVTIVHFDYWGQGTQVTVSS | low polyreactivity |
| QVQLVESGGGLVQAGGSLRLSCAASGSIFVPYAMGWTRQAPGKERELVAAIRRSGGRTYYADSVKGRFTISRDNAKNNVYLQMKSLKPEYTAVFYCAARQRYFWYTSNYNYWAQGTQVTVSS | high polyreactivity |
| QVQLVESGGGLVQAGGSLRLSCAASGSIFVPYAMGWYRQAPGKEREFVAAMYSGGGNTYYADSVKGRFTISRDNAKNTVYLQMNSLKREDTAVYYCAAAYVYSSWSRYDYWGQGTQVTVSS | high polyreactivity |
| QVQLVESGGGLVQAGGSLRLSCAASGSIFVPYAMGWYRQAPGKERELDAVITSGGSTYYADSVKGRFSISRDNAKNTVYLQMNSLKPEDTAVYYCNADLYYVWSTLSQFDYWGQGTQVTVSS | low polyreactivity |
| QVQLVESGGGLVQAGGSLRLSCAASGSIFVPYAMGWYRQAPGKERELVAAISSGGGRTYYADSVKGRFTISRDNAKNTVYLQMNRLKPEDTAVYYCAARYYIGYGHRTYGYDYWGQGTQVTVSS | high polyreactivity |
| QVQLVESGGGLVQAGGSLRLSCAASGSIFVPYGMGWYRKAPGTDRELVAAITFRTTSTYYADSVKGRFTISRDNAKNTVYLQMNSLKPEDTAVYYCNKGDYRTYPYDYWGQGTQVTVSS | low polyreactivity |
| QVQLVESGGGLVQAGGSLRLSCAASGSIFVQNRMGWYRQAPGKERELVAAITFSGVDTYYADSVKGRFTISRDNAKNTVYLQMNSLKPEDTAVYYCAARVQHYLSTDDYWGQGTQVTVSS | low polyreactivity |
| QVQLVESGGGLVQAGGSLRLSCAASGSIFVQYDMGWYRQAPGKERELVAAISWSGGSTYYADSVKGRFTISRDNAKNTVYLQMNTLKPEDTAVYYCAARARLWYFSYGYWGQGTQVTVSS | low polyreactivity |
| QVQLVESGGGLVQAGGSLRLSCAASGSIFVRNAKGCYRQAPWKERELVAAITATGGRTYYADSVKGRFTISRDNAKNTVYLQMNSLKPEDTAVYYCAAYYPRSGYDYWGQGTQVNVSS | high polyreactivity |
| QVQLVESGGGLVQAGGSLRLSCAASGSIFVRNAMGWYRQSPGKERELVAAITSGDSTNYADSVKGRFTISRDNAKNTVYLQMYCLKPEDTAVYYCNAQIYSVYRDGRDIYKYDYWGQGTQVTVSS | low polyreactivity |
